We go through 2 compounds from PMC3686867, “Characterization of a Novel Putative S-Adenosylmethionine Decarboxylase-Like Protein from Leishmania donovani” (PLoS ONE, 2013).

The target of assay [1] is Leishmania donovani putative S-adenosylmethionine decarboxylase-like proenzyme (ADL) (Leishmania donovani). Put plainly: SEC; Superdex 75 10/300; ADL 1 mg/ml; 50 mM Tris-HCl pH 7.0, 50 mM NaCl, 3 mM β-me; 25°C; calibrated with low molecular weight standards; elution at 10.4 ml, ~66 kDa. For orientation: In gel filtration, larger molecules generally elute earlier.
Assay [2] has the same target. In words: native gel or EMSA; native polyacrylamide gel electrophoresis of purified ADL.
In assay [3] the target is T1, S-adenosylmethionine decarboxylase-like protein (ADL; putative S-adenosylmethionine decarboxylase-like proenzyme) (Leishmania donovani, UniProt E9BM59).
T1 construct: gene LdCL_300037200; 894 bp L. donovani ADL gene in pQE30, 6×His-ADL, ~33 kDa, dimer
T1 sequence (E9BM59 1-297): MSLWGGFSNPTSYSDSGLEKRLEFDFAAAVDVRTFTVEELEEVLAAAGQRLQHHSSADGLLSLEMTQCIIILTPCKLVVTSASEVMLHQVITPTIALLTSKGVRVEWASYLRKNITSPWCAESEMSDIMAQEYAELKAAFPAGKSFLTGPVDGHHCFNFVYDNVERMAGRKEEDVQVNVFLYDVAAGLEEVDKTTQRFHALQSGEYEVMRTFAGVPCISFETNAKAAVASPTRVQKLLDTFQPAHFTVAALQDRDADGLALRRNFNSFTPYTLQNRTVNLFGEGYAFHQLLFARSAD
Put plainly: tryptophan fluorescence quenching titration (saturation isotherm); supported by far-UV CD. The format is binding.

As usually defined, the stoichiometry N is a count of units in the complex or per binding partner. On to “Leishmania donovani putative S-adenosylmethionine decarboxylase-like proenzyme (ADL) (natural protein)”, for which the stoichiometry N in assay [1] and in assay [2] was 2 throughout.
The term Kd denotes the concentration at which binding is half-saturated. A higher Kd goes with lower affinity. Consider `C[S+](CC[C@H](N)C(=O)[O-])C[C@H]1O[C@@H](n2cnc3c(N)ncnc32)[C@H](O)[C@@H]1O` (stereo partly drawn) [S-adenosylmethionine], for which the Kd in assay [3] was found to be 51 ± 5 µM.
